Experimental data published in patent publication US20250312444A1 (BEIJING TUO JIE BIOPHARMACEUTICAL, published 2025).
Read-outs that look alike come from different tables or passages of the source.

Tests used:
Test in all cases: SPR Biacore T200, antibody captured by anti-His, albumin as analyte
[1] = target: mouse serum albumin (mSA) (mouse)
Description: (§1) The affinity constants of the 6His-tagged humanized anti-HSA antibodies for human, monkey and mouse albumins were determined using a Biacore T200 (GE Healthcare) instrument. Firstly, amino coupling was performed on a CM5 S series chip (GE, Cat. 29-1049-88) by using an amino coupling kit (GE, Cat. BR-1000-50) and a His capture kit (GE, Cat. 28-9950-56) according to the kit manuals. The surface response value reached about 10000 RU. The chip was then blocked with ethanolamine for later use. The 6His-tagged humanized anti-HSA antibodies were each captured onto the anti-his chip through affinity. Then, different concentrations of human, monkey and mouse albumins were flowed over the surface of the chip, and the reaction signals were detected in real-time using the Biacore instrument to obtain the association and dissociation curves. Finally, fitting was performed with a Langmuir 1:1 binding model using BIAevaluation version 4.1, GE software to obtain the affinity constants. The buffer used in the experiment was an HBS-EP solution (10 mM HEPES, 150 mM NaCl, 3 mM EDTA, 0.05% P20, pH 7.4, GE, Cat. #BR-1006-69). After the end of each cycle, the chip was regenerated using glycine-hydrochloric acid (pH 1.5) (GE, Cat. #BR-1003-54).

[2] = target: T1, monkey serum albumin (CySA) (monkey)
T1 chain: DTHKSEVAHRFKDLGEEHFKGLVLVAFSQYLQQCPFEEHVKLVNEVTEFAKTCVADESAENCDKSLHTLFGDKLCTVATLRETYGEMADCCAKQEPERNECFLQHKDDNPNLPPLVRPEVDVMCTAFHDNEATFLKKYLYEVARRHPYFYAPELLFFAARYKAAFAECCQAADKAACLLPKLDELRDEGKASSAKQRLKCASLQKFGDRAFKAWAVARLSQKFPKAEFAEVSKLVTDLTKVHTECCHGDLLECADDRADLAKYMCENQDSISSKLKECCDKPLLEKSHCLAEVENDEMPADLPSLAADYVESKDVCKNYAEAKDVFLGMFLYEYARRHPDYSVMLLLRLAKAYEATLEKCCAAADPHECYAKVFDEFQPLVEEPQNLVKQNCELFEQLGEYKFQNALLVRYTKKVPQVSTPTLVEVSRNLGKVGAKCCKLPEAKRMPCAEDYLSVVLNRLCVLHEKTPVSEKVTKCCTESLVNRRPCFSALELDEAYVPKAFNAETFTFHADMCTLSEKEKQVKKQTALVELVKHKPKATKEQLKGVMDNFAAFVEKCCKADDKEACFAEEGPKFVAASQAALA
Description: as §1

[3] = target: human serum albumin (HSA) (human)
Description: as §1

[4] = target: T2, dog serum albumin (dog, UniProt P49822 25-608)
T2 construct: also called Dog SA; dog albumin
Description: (§2) The anti-HSA antibody 7_Hu_10-6his was transiently expressed in HEK293E cells. After affinity purification with a nickel column, the affinity constants of the antibody for human, monkey, mouse, rat, dog and rabbit albumins were determined using a Biacore T200 (GE Healthcare) instrument. Firstly, amino coupling was performed on a CM5 S series chip (GE, Cat. 29-1049-88) by using an amino coupling kit (GE, Cat. BR-1000-50) and a His capture kit (GE, Cat. 28-9950-56) according to the kit manuals. The surface response value reached about 10000 RU. The chip was then blocked with ethanolamine for later use. The 6His-tagged humanized anti-HSA antibodies were each captured onto the anti-his chip through affinity. Then, different concentrations of human, monkey, mouse, rat, dog and rabbit albumins were flowed over the surface of the chip, and the reaction signals were detected in real-time using the Biacore instrument to obtain the association and dissociation curves. Finally, fitting was performed with a Langmuir 1:1 binding model using BIAevaluation version 4.1, GE software to obtain the affinity constants. The buffer used in the experiment was an HBS-EP solution (10 mM HEPES, 150 mM NaCl, 3 mM EDTA, 0.05% P20, pH 7.4, GE, Cat. #BR-1006-69). 20 After the end of each cycle, the chip was regenerated using glycine-hydrochloric acid (pH 1.5) (GE, Cat. #BR-1003-54).

[5] = target: mouse serum albumin (mSA) (mouse); remark: listed apart in the source
Description: as §2

[6] = target: T1, monkey serum albumin (CySA)
Description: as §2

[7] = target: human serum albumin (HSA) (human); remark: listed apart in the source
Description: as §2

[8] = target: T3, rat serum albumin (rat)
T3 chain: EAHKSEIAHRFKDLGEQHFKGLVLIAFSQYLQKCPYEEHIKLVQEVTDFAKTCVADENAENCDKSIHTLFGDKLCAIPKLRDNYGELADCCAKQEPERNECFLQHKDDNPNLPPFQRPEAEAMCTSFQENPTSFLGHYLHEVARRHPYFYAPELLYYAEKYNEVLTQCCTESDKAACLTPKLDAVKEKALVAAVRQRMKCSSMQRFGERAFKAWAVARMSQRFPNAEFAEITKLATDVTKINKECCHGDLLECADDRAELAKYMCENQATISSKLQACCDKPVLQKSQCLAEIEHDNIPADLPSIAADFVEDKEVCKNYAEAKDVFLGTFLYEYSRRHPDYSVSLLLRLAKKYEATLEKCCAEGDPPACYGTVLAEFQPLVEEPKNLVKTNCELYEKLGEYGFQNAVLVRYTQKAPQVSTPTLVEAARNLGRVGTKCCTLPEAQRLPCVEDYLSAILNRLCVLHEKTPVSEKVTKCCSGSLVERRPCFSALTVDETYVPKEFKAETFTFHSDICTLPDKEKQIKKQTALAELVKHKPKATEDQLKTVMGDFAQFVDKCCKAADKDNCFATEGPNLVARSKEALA
Description: as §2

[9] = target: T4, rabbit serum albumin (rabbit, UniProt P49065 25-608)
T4 construct: also called Rabbit SA; rabbit albumin
Description: as §2

B1: #7_Hu_10-6His (VHH)
VHH: EVQLLESGGGLVQPGGSLRLSCAASGFTFLTSCMGWFRQAPGKEREGVSSIYTVGGSTFYTNSVKGRFTISRDNSKNTLYLQMNSLRAEDTAVYYCAAGSPARCRLRDPTTFDYWGQGTLVTVSS
[1]
  Kd: 328 nM
  koff: 0.0196 s⁻¹
  kon: 59700 M⁻¹ s⁻¹
[2]
  Kd: 31 nM
  koff: 0.000545 s⁻¹
  kon: 17600 M⁻¹ s⁻¹
[3]
  Kd: 11.5 nM
  koff: 0.000347 s⁻¹
  kon: 30100 M⁻¹ s⁻¹
[4]
  Kd: 342 nM
  koff: 0.0211 s⁻¹
  kon: 61700 M⁻¹ s⁻¹
[5]
  Kd: 653 nM
  koff: 0.0254 s⁻¹
  kon: 38900 M⁻¹ s⁻¹
[6]
  Kd: 14.5 nM
  koff: 0.000697 s⁻¹
  kon: 47900 M⁻¹ s⁻¹
[7]
  Kd: 10.6 nM
  koff: 0.000683 s⁻¹
  kon: 64700 M⁻¹ s⁻¹
[8]
  Kd: 158 nM
  koff: 0.00461 s⁻¹
  kon: 29200 M⁻¹ s⁻¹
[9]
  binding result: no binding
